The Kd is a measure of binding affinity in units of concentration. In general, koff refers to the rate constant with which the complex falls apart. Broadly, the kon is the rate constant with which the complex forms. In general, EC50 refers to the midpoint of the concentration-response curve. Lower therefore signals an effect from little substance.

For assay [1], the target named is T1, human PSMA (prostate specific membrane antigen), full length (human, UniProt Q04609 1-750).
T1 construct: On LNCaP or C4-2B cells (endogenous) or transduced HEK293F cells; also called FOLH1_HUMAN; hPSMA
The assay is described as follows: FACS, whole cell binding, LNCaP. As for the experimental part: PSMA×CD3 bispecific antibodies were tested for binding to PSMA positive cell lines LNCAP, human PSMA-HEK, Chimpanzee-PSMA-HEK and Cynomolgous monkey PSMA-HEK. To assess the binding capabilities of the PSMA bispecific antibodies, the cell-binding assay was utilized (described previously). Briefly, PSMA expressing tumor cells are bound by bispecific antibodies at known concentrations and the bound antibody is detected by an anti-human kappa light chain PE conjugated detection reagent (Invitrogen). The Mean Fluorescents Intensity (MFI) is the measure of bound bispecific antibody. The MFI is converted to a relative EC₅₀. EC₅₀ is a commonly used dose-response curve, where the half maximal effective concentration or the EC₅₀ point is defined as the inflection point of the curve. EC₅₀ s were determined by measuring cell bound bispecific and known concentrations. […] The dose response curves were then diluted down to that of background or no bispecific binding. The inflection point of this curve reflects the EC₅₀ point. The calculated EC₅₀ is determined by taking the ug/ml amount of bispecific antibody at the EC₅₀ point and converting it to a molarity value based on the MW of the bispecific antibody. Bispecific antibodies were normalized for protein concentration and then incubated with the same number of cells expressing either human or cyno PSMA. The MFI at each concentration was collected by flow cytometry and plotted as a function of concentration. Data was transformed via log 10 and then plotted. Nonlinear regression of binding curves was done to determine EC₅₀ s. These relative values were used for ranking PSMA binding to target cells.
A general note: In flow cytometry, cells or beads pass a laser one at a time.

Assay [2] addresses T2, recombinant chimpanzee PSMA extracellular domain (ECD) protein (Pan troglodytes, UniProt Q04609 44-750 (human entry)).
T2 construct: also called Chimp PSMA ECD; PSMG8
T2 chain: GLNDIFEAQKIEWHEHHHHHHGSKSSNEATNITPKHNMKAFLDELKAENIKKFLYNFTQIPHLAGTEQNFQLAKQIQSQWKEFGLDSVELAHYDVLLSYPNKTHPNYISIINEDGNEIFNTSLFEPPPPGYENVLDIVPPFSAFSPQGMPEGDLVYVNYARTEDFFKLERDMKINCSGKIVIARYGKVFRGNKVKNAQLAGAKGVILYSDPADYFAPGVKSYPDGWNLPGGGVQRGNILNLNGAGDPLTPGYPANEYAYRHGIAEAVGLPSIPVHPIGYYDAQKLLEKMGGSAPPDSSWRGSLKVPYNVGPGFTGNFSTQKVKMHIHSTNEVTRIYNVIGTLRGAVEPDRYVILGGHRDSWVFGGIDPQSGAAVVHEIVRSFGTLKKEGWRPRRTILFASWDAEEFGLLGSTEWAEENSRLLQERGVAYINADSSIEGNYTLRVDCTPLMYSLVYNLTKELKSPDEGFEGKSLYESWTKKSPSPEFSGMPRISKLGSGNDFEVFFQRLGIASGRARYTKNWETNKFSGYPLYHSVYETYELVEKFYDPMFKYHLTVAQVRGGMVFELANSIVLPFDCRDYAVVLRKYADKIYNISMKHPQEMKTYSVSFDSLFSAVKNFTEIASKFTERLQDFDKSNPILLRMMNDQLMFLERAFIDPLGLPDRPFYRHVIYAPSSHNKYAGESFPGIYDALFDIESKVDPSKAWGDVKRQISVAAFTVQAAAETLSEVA
Nature of the assay: SPR Biacore 3000, bsAb captured by anti-Fc. As for the experimental part: Binding to recombinant Chimp PSMA by Biacore. The Affinity measurements using Surface Plasmon Resonance (SPR) were performed using a Biacore 3000 optical biosensor (Biacore-GE Healthcare). A biosensor surface was prepared by coupling anti-Human IgG Fc (Jackson ImmunoResearch Laboratory, cat #109-005-098) to the carboxymethylated dextran surface of a CM-5 chip (Biacore, cat # BR-1000-12) using the manufacturer instructions for amine-coupling chemistry. Approximately 16,000 RU (response units) of anti-Human IgG Fc antibodies were immobilized in each of four flow cells. The kinetic experiments were performed at 25° C. in running buffer (DPBS+0.03% P20+[…]). Dilutions of antigen (recombinant Chimp PSMA, concentration either from 1.2-300 nM or 3.7-900 nM in a 3-fold serial dilution) were prepared in running buffer. About 100 RU of PSMA×CD3 bispecific mAbs were captured on flow cell 2 to 4 of the sensor chip. Flow cell 1 was used as reference surface. Capture of PSMA×CD3 bispecific mAb was followed by a 3 or 5-minute injection (association phase) of antigen (recombinant Chimp PSMA) at 50 μl/min, followed by 15 or 20 minutes of buffer flow (dissociation phase). The chip surface was regenerated by two 18-second injections of 100 mM Phosphoric acid (H₃PO₄, Sigma, cat #7961) at 50 μl/min.
The collected data were processed using BIAevaluation software (Biacore). First, double reference subtraction of the data was performed by subtracting the curves generated by buffer injection from the reference-subtracted curves for analyte injections. Then kinetic analysis of the data was performed using a Langmuir 1:1 binding model with global fit. The result for each PSMA×CD3 bispecific mAb was reported in the format of kₐ (On-rate), kd (Off-rate) and KD (Equilibrium dissociation constant).
For orientation: In SPR one partner is held on a chip, and binding of the other changes the refractive index at the surface.

T1 sequence (Q04609 whole entry): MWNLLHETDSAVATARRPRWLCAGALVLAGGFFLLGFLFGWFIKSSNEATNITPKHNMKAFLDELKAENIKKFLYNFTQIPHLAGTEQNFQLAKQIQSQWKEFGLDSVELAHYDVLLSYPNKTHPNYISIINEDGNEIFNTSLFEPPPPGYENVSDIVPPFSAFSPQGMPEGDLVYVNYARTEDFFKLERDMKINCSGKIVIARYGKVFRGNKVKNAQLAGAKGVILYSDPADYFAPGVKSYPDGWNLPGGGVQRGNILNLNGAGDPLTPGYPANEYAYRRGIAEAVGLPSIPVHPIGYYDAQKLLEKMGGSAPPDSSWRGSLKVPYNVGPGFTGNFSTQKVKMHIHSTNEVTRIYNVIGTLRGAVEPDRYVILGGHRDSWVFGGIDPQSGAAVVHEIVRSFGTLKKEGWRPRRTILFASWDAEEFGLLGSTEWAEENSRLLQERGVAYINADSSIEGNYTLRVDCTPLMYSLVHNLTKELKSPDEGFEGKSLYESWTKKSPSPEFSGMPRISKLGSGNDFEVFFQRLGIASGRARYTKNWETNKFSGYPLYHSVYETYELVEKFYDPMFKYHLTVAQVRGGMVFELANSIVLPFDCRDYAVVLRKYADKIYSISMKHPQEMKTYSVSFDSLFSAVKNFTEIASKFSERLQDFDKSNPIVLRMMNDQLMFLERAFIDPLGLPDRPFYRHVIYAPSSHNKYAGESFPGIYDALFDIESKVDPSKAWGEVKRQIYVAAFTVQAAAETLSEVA

B1: PS3B19 (bispecific antibody, human IgG4 S228P, kappa, lambda, F234A L235A)
heavy 1: not shown
light 1: not shown
heavy 2: EVQLVESGGGLVQPGGSLRLSCAASGFTFNTYAMNWVRQAPGKGLEWVARIRSKYNNYATYYAASVKGRFTISRDDSKNSLYLQMNSLKTEDTAVYYCARHGNFGNSYVSWFAYWGQGTLVTVSSASTKGPSVFPLAPCSRSTSESTAALGCLVKDYFPEPVTVSWNSGALTSGVHTFPAVLQSSGLYSLSSVVTVPSSSLGTKTYTCNVDHKPSNTKVDKRVESKYGPPCPPCPAPEAAGGPSVFLFPPKPKDTLMISRTPEVTCVVVDVSQEDPEVQFNWYVDGVEVHNAKTKPREEQFNSTYRVVSVLTVLHQDWLNGKEYKCKVSNKGLPSSIEKTISKAKGQPREPQVYTLPPSQEEMTKNQVSLTCLVKGFYPSDIAVEWESNGQPENNYKTTPPVLDSDGSFLLYSKLTVDKSRWQEGNVFSCSVMHEALHNHYTQKSLSLSLGK
light 2: QTVVTQEPSLTVSPGGTVTLTCRSSTGAVTTSNYANWVQQKPGQAPRGLIGGTNKRAPGTPARFSGSLLGGKAALTLSGVQPEDEAEYYCALWYSNLWVFGGGTKLTVLGQPKAAPSVTLFPPSSEELQANKATLVCLISDFYPGAVTVAWKADSSPVKAGVETTTPSKQSNNKYAASSYLSLTPEQWKSHRSYSCQVTHEGSTVEKTVAPTECS
notes: IgG4 PAA; PSMA arm chains first, then CD3 arm (F405L, R409K); also called PSMB119 x CD3B219
As for B1, the binding result in assay [1] is listed as “binds”. In addition, in assay [2], the Kd was determined as 66.3 nM, the koff worked out at 0.000414 s⁻¹ and the kon is 6240 M⁻¹ s⁻¹.

B2: PS3B28 (bispecific antibody, human IgG4 S228P, kappa, lambda, F234A L235A)
heavy 1: not shown
light 1: not shown
heavy 2: B1 heavy 2
light 2: B1 light 2
notes: IgG4 PAA; PSMA arm chains first, then CD3 arm (F405L, R409K); also called PSMB128 x CD3B219
In assay [1], B2 displayed an EC50 of 1.16 µg/mL. Besides, in assay [2], the equilibrium dissociation constant (Kd) was 30.8 nM, the koff was 0.00191 s⁻¹ and the kon was 62000 M⁻¹ s⁻¹.

B3: PS3B24 (bispecific antibody, human IgG4 S228P, kappa, lambda, F234A L235A)
heavy 1: not shown
light 1: not shown
heavy 2: B1 heavy 2
light 2: B1 light 2
notes: IgG4 PAA; PSMA arm chains first, then CD3 arm (F405L, R409K); also called PSMB124 x CD3B219
On to B3, for which, in assay [1], the binding result is recorded as “binds”. Moreover, in assay [2], the dissociation constant (Kd) was 38.6 nM, the koff was found to be 0.000907 s⁻¹ and the association rate constant (kon) amounted to 23500 M⁻¹ s⁻¹.

B4: PS3B20 (bispecific antibody, human IgG4 S228P, kappa, lambda, F234A L235A)
heavy 1: not shown
light 1: not shown
heavy 2: B1 heavy 2
light 2: B1 light 2
notes: IgG4 PAA; PSMA arm chains first, then CD3 arm (F405L, R409K); also called PSMB120 x CD3B219
As for B4, in assay [1], the response was half-maximal at 123 µg/mL (EC50). Besides, in assay [2], the dissociation constant (Kd) amounted to 59.1 nM, the dissociation rate constant (koff) was found to be 0.000461 s⁻¹ and the kon came out at 7820 M⁻¹ s⁻¹.

For the origin of these results see patent US20200024360A1 (Janssen / Centocor, published 2020).
